Reference: patent US20220056119A1 (Regeneron, published 2022)

T1: Activin A (human, UniProt P08476 311-426)
T1 sequence: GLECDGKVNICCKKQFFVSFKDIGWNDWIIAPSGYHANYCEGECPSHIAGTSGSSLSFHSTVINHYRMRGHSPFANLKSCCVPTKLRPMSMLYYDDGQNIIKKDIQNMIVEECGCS

T2: Activin B (human, UniProt P09529 293-407)
T2 chain: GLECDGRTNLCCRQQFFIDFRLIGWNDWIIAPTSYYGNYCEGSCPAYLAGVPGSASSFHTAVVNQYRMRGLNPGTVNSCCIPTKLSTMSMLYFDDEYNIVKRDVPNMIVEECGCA

T3: Activin AB (human, UniProt P08476 311-426; P09529 293-407)
T3 chain 1: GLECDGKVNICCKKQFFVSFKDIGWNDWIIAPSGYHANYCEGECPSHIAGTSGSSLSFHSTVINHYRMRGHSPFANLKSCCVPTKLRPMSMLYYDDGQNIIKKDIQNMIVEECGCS
T3 chain 2: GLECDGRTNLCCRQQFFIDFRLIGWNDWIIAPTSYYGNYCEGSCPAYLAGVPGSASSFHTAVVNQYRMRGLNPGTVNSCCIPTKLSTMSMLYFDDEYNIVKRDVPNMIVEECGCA

T4: Activin AC (human, UniProt P55103 237-352)
T4 sequence 1: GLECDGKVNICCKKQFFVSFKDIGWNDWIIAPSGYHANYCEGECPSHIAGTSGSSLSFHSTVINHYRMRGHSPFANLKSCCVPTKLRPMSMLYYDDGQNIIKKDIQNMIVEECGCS
T4 sequence 2: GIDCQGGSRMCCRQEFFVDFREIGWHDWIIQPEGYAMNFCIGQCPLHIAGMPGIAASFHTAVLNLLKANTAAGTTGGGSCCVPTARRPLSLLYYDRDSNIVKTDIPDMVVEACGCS

T5: Activin B (homodimer of two inhibin betaB subunits) (human, UniProt P09529 293-407)
T5 construct: Bought (R&D Systems #659-AB-025/CF)
T5 chain: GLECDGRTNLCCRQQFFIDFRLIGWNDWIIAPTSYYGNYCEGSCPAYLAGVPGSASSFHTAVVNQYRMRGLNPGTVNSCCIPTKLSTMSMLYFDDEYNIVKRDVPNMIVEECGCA


Columns and labels:
[1] = biological target: T1, Activin A; assay: cell-based or functional assay
[2] = biological target: T2, Activin B; assay: cell-based or functional assay
[3] = biological target: T3, Activin AB; assay: cell-based or functional assay
[4] = biological target: T4, Activin AC; assay: cell-based or functional assay
[5] = biological target: T1, Activin A; assay: SPR, 5 nM Activin A + 15 nM binder over hActRIIA-hFc surface
Description: (§1) The binding signal (RU) was measured at 150 seconds after the start of the injection, and this signal was subtracted by the measured RU value for a negative control reference surface to determine the specific binding signal.

[6] = biological target: T1, Activin A; assay: SPR, 5 nM Activin A + 30 nM binder over hActRIIA-hFc surface
Description: as §1

[7] = biological target: T1, Activin A; assay: SPR, 5 nM Activin A + 60 nM binder over hActRIIA-hFc surface
Description: as §1

[8] = biological target: T1, Activin A; assay: SPR, 5 nM Activin A + 0.94 nM binder over hActRIIA-hFc surface
Description: as §1

[9] = biological target: T1, Activin A; assay: SPR, 5 nM Activin A + 1.88 nM binder over hActRIIA-hFc surface
Description: as §1

[10] = biological target: T1, Activin A; assay: SPR, 5 nM Activin A + 3.75 nM binder over hActRIIA-hFc surface
Description: as §1

[11] = biological target: T1, Activin A; assay: SPR, 5 nM Activin A + 7.50 nM binder over hActRIIA-hFc surface
Description: as §1

[12] = biological target: T1, Activin A; assay: SPR, 5 nM Activin A + 15 nM binder over Follistatin-288 surface
Description: as §1

[13] = biological target: T1, Activin A; assay: SPR, 5 nM Activin A + 30 nM binder over Follistatin-288 surface
Description: as §1

[14] = biological target: T1, Activin A; assay: SPR, 5 nM Activin A + 60 nM binder over Follistatin-288 surface
Description: as §1

[15] = biological target: T1, Activin A; assay: SPR, 5 nM Activin A + 7.5 nM binder over Follistatin-288 surface
Description: as §1

[16] = biological target: T1, Activin A; assay: SPR, 5 nM Activin A + 0.94 nM binder over Follistatin-288 surface
Description: as §1

[17] = biological target: T1, Activin A; assay: SPR, 5 nM Activin A + 1.88 nM binder over Follistatin-288 surface
Description: as §1

[18] = biological target: T1, Activin A; assay: SPR, 5 nM Activin A + 3.75 nM binder over Follistatin-288 surface
Description: as §1

[19] = biological target: T1, Activin A; assay: SPR, 5 nM Activin A + 0 nM binder (no inhibitor) over Follistatin-288 surface
Description: as §1

[20] = biological target: T1, Activin A; assay: SPR, 5 nM Activin A + 0.00 nM binder (no inhibitor) over hActRIIA-hFc surface
Description: as §1

[21] = biological target: T5, Activin B (homodimer of two inhibin …); assay: SPR (Biacore), mAb captured by anti-Fc, Activin B injected, 25 C
Description: Antibody-antigen association was monitored for 240 seconds while dissociation in buffer was monitored for 600 seconds. Kinetic association and dissociation rate constants were determined by processing and fitting the data using Scrubber software version 2.0c. Binding equilibrium dissociation constants (KD) and dissociative half-lives (t_{1/2}) were then calculated from the kinetic rate constants as: KD (M)=kd/kₐ and t_{1/2} (min)=[ln 2/(60*kd)]. (NB=no binding observed under the conditions used; NT=not tested).

Binder	IC50, inhibition of 100 pM Activin A in A204/CAGAx12-Luc luciferase bioassay [1] [M]	IC50, inhibition of 50 pM Activin B in A204/CAGAx12-Luc luciferase bioassay [2] [M]	IC50, inhibition of 30 pM Activin AB in A204/CAGAx12-Luc luciferase bioassay [3] [M]	IC50, inhibition of 4 nM Activin AC in A204/CAGAx12-Luc luciferase bioassay [4] [pM]	% bound RU w/ no inhibitor [5] [%]	% bound RU w/ no inhibitor [6] [%]	% bound RU w/ no inhibitor [7] [%]	% bound RU w/ no inhibitor [8] [%]	% bound RU w/ no inhibitor [9] [%]	% bound RU w/ no inhibitor [10] [%]	% bound RU w/ no inhibitor [11] [%]	% bound RU w/ no inhibitor [12] [%]	% bound RU w/ no inhibitor [13] [%]	% bound RU w/ no inhibitor [14] [%]	% bound RU w/ no inhibitor [15] [%]	% bound RU w/ no inhibitor [16] [%]	% bound RU w/ no inhibitor [17] [%]	% bound RU w/ no inhibitor [18] [%]	% bound RU w/ no inhibitor [19] [%]	% bound RU w/ no inhibitor [20] [%]	further results
H4H10436P2 (antibody, human IgG4, V domains shown) VH: QVQLVESGGGVVQPGRSLRLTCVASGFTVSSYGMHWVRQAPGKGLEWVAVMFYDESKKYYADSVKGRFTISRDNSKNTLYLQMNSLRVEDTAVYYCARDEQLDFEYWGQGTLVTVSS VL: not shown	2e-10	1.3e-10	1.4e-10	1300	2	2	2	75	55	16	2	1	2	2	1	78	61	16	100	100	–
H4H10440P2 (antibody, human IgG4, V domains shown) VH: EVQLVESGGGVVQPGGSLRLSCAASTFTFDDFAMHWVRQAPGKGLEWVSLITGDGGSTYYADPVKGRFTISRDNSKNSLYLQMNSLRTEDTALYYCVKDWWIAARPDYYYYGMDVWGQGTTVTVSS VL: not shown	2.8e-10	5.2e-09	4.3e-10	750	4	3	3	75	52	17	6	2	1	0	4	76	57	17	100	100	–
H4H10423P (antibody, human IgG4, V domains shown) VH: QVQLQQSGPGLLKPSQTLSLTCAISGDSVSSNSAAWSWIRQSPSRGLEWLGRTYYRANWFNDYALSVKSRITINPVTSTNHFSLQLHSVTPEDTAVYYCAREGALGYYFDSWGQGTLVTVSS VL: not shown	–	–	–	–	–	–	–	–	–	–	–	–	–	–	–	–	–	–	–	–	50 nM Ag Bound (RU) [21]: 4.7 RU
H4H10429P (antibody, human IgG4, V domains shown) VH: QVQLVESGGGVVQPGRSLRLSCVASGFTVSSYGIHWVRQAPGKGLEWVSVIWYDGRNKDYADSVKGRFTISRDNSKNTVYLEMKGLRAEDTALYYCARDKTGDFDSWGQGTLVTVSS VL: DIQMTQSPSSLSASVGDRVTITCRASQNINSFLSWYQQKPGKAPKFLIYDASSIQSGAPSRFSGSGSGTDFTLTISSLQPEDFATYYCQQSYSSPFTFGQGTKLEIK	1.6e-10	7.9e-08	2.9e-10	580	1	1	1	87	66	19	1	1	2	3	1	97	80	20	100	100	–
